# Laboratory results taken from US20240174741A1.
# B1: CD1-M8 (antibody, V domains shown)
# VH: EVQLQQSGPELVKPGASVKMSCKASGYTFTDYYIHWVKQSHGKGLEWIGYIFPNNGGNGYSQKFKGKATMTVDKSSSTAYMELRSLTSEDSAVYYCARGGYDAGFVYWGQGTLVTVSA
# VL: DIVMSQSPSSLAVSAGEKVTMSCKSSQSLFNSGARKNFLAWYQQKPGQSPKLLIYWASTRESGVPDRFTGSGSGTDFTLTISSVQAEDLAVYYCKQSYYLITFGAGTKLELK
# Molecular target: ESYT2_Frag (human) (UniProt A0FGR8)
# Experiment: CDI HuProt native protein microarray (High-Spec cross-reactivity assay)
binder,measurement,value
B1,F635,1860
same,S-Score,2.15
same,Z-Score,5.71
